In article PMC10397247:

Legend:
Experiment in all cases: two-hybrid library CCmax;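 also: natural log of median RNA to DNA barcode read ratio; higher means stronger binding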
[1] = biological target: T1, 4H2165-AA; settings: mean of both orientations
T1 chain: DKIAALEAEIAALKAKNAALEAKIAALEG

[2] = biological target: T2, 4H3001-AA
T2 chain: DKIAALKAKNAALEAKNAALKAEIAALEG

[3] = biological target: T3, 4H3438-AA; settings: mean of both orientations
T3 chain: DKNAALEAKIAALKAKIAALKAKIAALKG

[4] = biological target: T4, 4H2592-AA; settings: mean of both orientations
T4 chain: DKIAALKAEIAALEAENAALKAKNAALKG

[5] = biological target: T5, 4H_BCR; settings: mean of both orientations
T5 chain: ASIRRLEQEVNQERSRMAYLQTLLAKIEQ

[6] = biological target: T6, 4H2124-AA; settings: mean of both orientations
T6 chain: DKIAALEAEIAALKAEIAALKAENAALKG

[7] = biological target: T7, 4H406-AA; settings: mean of both orientations
T7 chain: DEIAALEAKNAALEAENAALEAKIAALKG

[8] = biological target: T8, 4H2931-AA; settings: mean of both orientations
T8 chain: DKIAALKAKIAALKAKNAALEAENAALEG

[9] = biological target: T9, 4H3015-AA; settings: mean of both orientations
T9 chain: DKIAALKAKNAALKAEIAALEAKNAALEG

[10] = biological target: T10, 4H1828-AA; settings: mean of both orientations
T10 chain: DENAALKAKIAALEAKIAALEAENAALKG

[11] = biological target: T11, 4H56-AA; settings: mean of both orientations
T11 chain: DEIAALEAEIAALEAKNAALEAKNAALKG

[12] = biological target: T12, 4H347-AA; settings: mean of both orientations
T12 chain: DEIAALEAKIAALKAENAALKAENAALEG

[13] = biological target: T13, 4H2253-AA; settings: mean of both orientations
T13 chain: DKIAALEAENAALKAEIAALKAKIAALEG

[14] = biological target: T14, 4H1930-AA; settings: mean of both orientations
T14 chain: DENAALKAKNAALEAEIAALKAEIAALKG

[15] = biological target: T15, 4H452-AA; settings: mean of both orientations
T15 chain: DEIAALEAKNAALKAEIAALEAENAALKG

[16] = biological target: T16, 4H2343-AA; settings: mean of both orientations
T16 chain: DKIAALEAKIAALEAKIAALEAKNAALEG

[17] = biological target: T17, 4H2732-AA; settings: mean of both orientations
T17 chain: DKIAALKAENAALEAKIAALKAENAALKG

[18] = biological target: T18, 4H249-AA; settings: mean of both orientations
T18 chain: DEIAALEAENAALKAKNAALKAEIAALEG

[19] = biological target: T19, 4H1821-AA
T19 chain: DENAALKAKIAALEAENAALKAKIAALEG

[20] = biological target: T20, 4H2774-AA; settings: mean of both orientations
T20 chain: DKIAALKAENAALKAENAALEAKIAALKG

[21] = biological target: GCN2_T; settings: mean of both orientations
[22] = biological target: T21, 4H3073-AA; settings: mean of both orientations
T21 chain: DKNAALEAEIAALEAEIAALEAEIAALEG

[23] = biological target: 4H_GCN4
[24] = biological target: T22, 4H_APH; settings: mean of both orientations
T22 chain: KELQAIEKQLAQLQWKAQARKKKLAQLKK

[25] = biological target: T23, 4H2466-AA; settings: mean of both orientations
T23 chain: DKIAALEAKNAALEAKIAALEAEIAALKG

[26] = biological target: T24, 4H2330-AA; settings: mean of both orientations
T24 chain: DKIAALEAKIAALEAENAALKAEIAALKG

[27] = biological target: T25, 4H2961-AA; settings: mean of both orientations
T25 chain: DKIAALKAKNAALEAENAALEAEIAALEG

[28] = biological target: T26, 4H464-AA; settings: mean of both orientations
T26 chain: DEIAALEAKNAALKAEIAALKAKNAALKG

[29] = biological target: T27, 4H380-AA; settings: mean of both orientations
T27 chain: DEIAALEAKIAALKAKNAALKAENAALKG

[30] = biological target: T28, 4H3629-AA; settings: mean of both orientations
T28 chain: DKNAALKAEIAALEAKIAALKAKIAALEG

[31] = biological target: T29, 4H2699-AA; settings: mean of both orientations
T29 chain: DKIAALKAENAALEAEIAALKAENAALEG

[32] = biological target: T30, 4H1558-AA; settings: mean of both orientations
T30 chain: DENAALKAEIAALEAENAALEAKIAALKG

[33] = biological target: T31, 4H3129-AA; settings: mean of both orientations
T31 chain: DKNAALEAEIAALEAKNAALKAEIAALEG

[34] = biological target: T32, 4H2728-AA; settings: mean of both orientations
T32 chain: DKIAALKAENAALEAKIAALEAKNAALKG

[35] = biological target: T33, 4H341-AA; settings: mean of both orientations
T33 chain: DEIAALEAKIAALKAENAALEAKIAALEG

[36] = biological target: T34, 4H2580-AA; settings: mean of both orientations
T34 chain: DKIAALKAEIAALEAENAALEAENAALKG

[37] = biological target: T35, 4H1454-AA; settings: mean of both orientations
T35 chain: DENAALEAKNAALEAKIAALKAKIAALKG

[38] = biological target: T36, 4H63-AA; settings: mean of both orientations
T36 chain: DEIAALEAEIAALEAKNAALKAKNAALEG

[39] = biological target: T37, 4H3969-AA; settings: mean of both orientations
T37 chain: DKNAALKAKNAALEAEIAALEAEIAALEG

[40] = biological target: T38, 4H2903-AA; settings: mean of both orientations
T38 chain: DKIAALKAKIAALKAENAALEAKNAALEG

[41] = biological target: T39, 4H2621-AA; settings: mean of both orientations
T39 chain: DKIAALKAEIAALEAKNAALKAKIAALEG

[42] = biological target: T40, 4H3049-AA; settings: mean of both orientations
T40 chain: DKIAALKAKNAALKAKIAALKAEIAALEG

[43] = biological target: T41, 4H1360-AA
T41 chain: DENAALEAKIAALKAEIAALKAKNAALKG

[44] = biological target: T42, 4H446-AA; settings: mean of both orientations
T42 chain: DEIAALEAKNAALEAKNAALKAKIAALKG

[45] = biological target: T43, 4H483-AA; settings: mean of both orientations
T43 chain: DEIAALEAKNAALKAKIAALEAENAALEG

[46] = biological target: T44, 4H1913-AA; settings: mean of both orientations
T44 chain: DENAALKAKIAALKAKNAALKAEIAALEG

[47] = biological target: T45, 4H3595-AA; settings: mean of both orientations
T45 chain: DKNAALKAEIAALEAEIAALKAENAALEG

[48] = biological target: T46, 4H3939-AA; settings: mean of both orientations
T46 chain: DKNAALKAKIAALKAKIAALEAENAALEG

[49] = biological target: T47, 4H3782-AA; settings: mean of both orientations
T47 chain: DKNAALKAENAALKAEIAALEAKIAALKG

[50] = biological target: T48, 4H3414-AA; settings: mean of both orientations
T48 chain: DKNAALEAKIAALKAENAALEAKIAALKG

Chain of 4H_GCN4 (chain, as listed by the source): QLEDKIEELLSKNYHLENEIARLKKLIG

Binder: DENAALKAKIAALEAENAALKAKIAALEG [4H1821-AA]
- interaction score [1]: -1.28
- interaction score [2]: -1.51
- interaction score [3]: -1.77
- interaction score [4]: -1.24
- interaction score [5]: -1.69
- interaction score [6]: -1.19
- interaction score [7]: -1.34
- interaction score [8]: -1.77
- interaction score [9]: -1.83
- interaction score [10]: -2.13
- interaction score [11]: -1.44
- interaction score [12]: -1.26
- interaction score [13]: -0.989
- interaction score [14]: -1.43
- interaction score [15]: -1.25
- interaction score [16]: -1.42
- interaction score [17]: -1.04
- interaction score [18]: -1.68
- interaction score [19]: 1.48
- interaction score [20]: -1.53
- interaction score [21]: -1.68
- interaction score [22]: -1.15
- interaction score [23]: -1.85
- interaction score [24]: -2.19
- interaction score [25]: -1.51
- interaction score [26]: -0.746

Binder: DENAALEAKIAALKAEIAALKAKNAALKG [4H1360-AA]
- interaction score [27]: -1.52
- interaction score [28]: -1.69
- interaction score [29]: -1.11
- interaction score [30]: 0.958
- interaction score [31]: 0.416
- interaction score [32]: -0.811
- interaction score [33]: -1.34
- interaction score [34]: -1.69
- interaction score [35]: 0.0278
- interaction score [36]: 1.2
- interaction score [37]: -1.08
- interaction score [38]: 0.265
- interaction score [39]: 0.163
- interaction score [40]: 0.0597
- interaction score [41]: -1.11
- interaction score [42]: -0.108
- interaction score [18]: -1.76
- interaction score [43]: -0.121
- interaction score [44]: -1.69
- interaction score [45]: -1.58
- interaction score [46]: -1.61
- interaction score [20]: -1.2
- interaction score [47]: 2
- interaction score [48]: 0.656
- interaction score [49]: -0.0635
- interaction score [50]: -1.25
